Values of other authors, collected in publication PMC12469268.
pKd, pKi: −log10 of the molar value.

Tests used:
[1] = target: α1A-adrenoceptor (Homo sapiens) (UniProt P35348); test: 3H-prazosin competition binding
[2] = target: integrin αvβ3 (Homo sapiens) (UniProt P06756)
[3] = target: α2B-adrenoceptor (Homo sapiens) (UniProt P18089)
[4] = target: α2C-adrenoceptor (Homo sapiens) (UniProt P18825)
[5] = target: α2A-adrenoceptor (Homo sapiens) (UniProt P08913)

In the case of AdTx1 (from UniProt P85092), the pKi [1] is given as 9.46.

For “CTX A5 (cardiotoxin A5) (from UniProt P62375)”, the pKd [2] is given as 6.52.

For ρ-Da1b (from UniProt P86419), the pKi [3] is given as 7.14, the pKi [4] is given as 7.42 and the pKi [5] is given as 7.85.
